The data set is described as follows: label from the status in PepcDB records.

As to “MSLQLLIAQVLLLLLGSLGISAAAPDLIVKHGLRALLAVALTFAVARIRPRTLLKWGTNVWIVALVLLVLVLFIGQGSQDSPGVRRWLSIAGQEFQPSEFAKLALVLQLASFFSRRGVQNKLLSATGMIIATTALVIFEPDLGTSVLTFGLGIIVMYAAGVRLFNIGGLVLALGLFSLPFVNSYLESHPYILKRWTGHQVRDDGVVTGLDQIGMAHRDLNYGGWWGQGPDGPRWEYFAAHTDMVVAAVGFSSGLLGVLTLLFAYWLIVSTALQVAQLATRIRPMSAEIHGASILAIGCMFLVVGQAFVNLAVAAGLFPVTGVPLPLVSYGFSSMLTMSVALGIIHSAMREVRRQLPVEVKMDDFVGAAADD”, the protein production entry was “failed”.

As to “MSLRARIHSPEEHGSRGEDGHLVASYRAKLLEEIDLAEMSALATAERRARLERVLGHIISREGPVLSTVERSQLIRRVVDEALGLGILEPLLEDASITEIMVNGPDAIFVERAGRVEQLPLRFASHDQLMQTIERIVSTVNRRVDESNPMVDARLPSGERVNVIIPPLSLTGATLTIRRFPRSFTLQELIGLGSLDENMLYLLAGLVQARFNIIVSGATGTGKTTLLNALSGLIPESDRIITIEDSAELQLQQAHVIRLESRPPNVEGQGRITIRDLVRNSLRMRPDRIVVGEVRGGESLDMLQAMSTGHDGSLATVHANSAEDALMRLQTLASMSDVEIPFVALHDQINSSVDVLIQLTRFADGARRITEIALLASHGGEPYRLATVARFNARPMSADGRVVGAYEYHPLPHRTAERLYMAGQPIPQAFGVAHTPDQLTTREAR”, the protein production result is “failed”.

In the case of “MSLRGELRVGLEPGYLPFEMKDKKGNVIGFDVDLAREMAKAMGVKLKLVPTSWDGLIPGLVTEKFDIIISGMTISQERNLRVNFVEPYIVVGQSLLVKKGLEKGVKSYKDLDKPELTLVTKFGVSAEYAAKRLFKNAKLKTYDTEAEAVQEVLNGKADMFIFDLPFNVAFMAQKGQGYLVHLDTSLTYEPLGWAIKKGDPDFLNWLNHFLAQIKHDGSYDELYERWFVDTKWLEKIQEGHHHHHH”, the protein production result was “not failed”.

Take “MSLRLADFGFTDGINEIIAITENEDGSWNAAPIGIIVEDSSSDTAKAKLYRNRTRANLERSGVLFANVTDDALVFAVSSFGNLNDDWYASPNPPIIKGAMAWCRFEAEMRSGVAHLKLTDGEIIEKRVRAINRGLSAVIEALVHATRYVAIKSDERRKELLERIHYYREIVQKCGSEREKRAFEIIMEKIGEGHHHHHH”: the protein production entry is “not failed”.

As for “MSLRVILFDLDGTLIDSAKDIALALEKTLKELGLEEYYPDNVTKYIGGGVRALLEKVLKDKFREEYVEVFRKHYLENPVVYTKPYPEIPYTLEALKSKGFKLAVVSNKLEELSKKILDILNLSGYFDLIVGGDTFGEKKPSPTPVLKTLEILGEEPEKALIVGDTDADIEAGKRAGTKTALALWGYVKLNSQIPDFTLSRPSDLVKLMDNHIVEFEGHHHHHH”, the protein production result was “not failed”.

Consider “MSLSAMPAALSFAGLAGWAEEDHLAALNAFRAGCGVSKDPAAARVCGLAKATKDLDVSGAKAFIEANFRVEAVDGGGDGLLTAYFAPQYEARMSRNAEFSAPLRGLPADLVVLDLGPFEPALVGKKITGHVEGSTFVPYPDRAEIEATPSDKPLAWMRPEELFFLQIQGSGVLVLPDGRRVRAVFAGTNGKPFVGIAIAMRDKGLLPDNNTSADAIRTWLAEHRGPEADAIMRLNPRYVFFRTVPDDGKEPAGAAGVALPPGRAIAVDPGYHAYGGFYWLDAAAPKLVGAFPVYRRAVTALDTGGAIKGEVRADLYMGSGAVAGVEAGRVRHTLRLYRLTPNPEGHHHHHH”, for which the protein production entry was “not failed”.

With “MSLSDDSTFGDATFVVLDFETTGLDPQVDEIIEIGAVKIQGGQIVDEYHTLIKPSREISRKSSEITGITQEMLENKRSIEEVLPEFLGFLEDSIIVAHNANFDYRFLRLWIKKVMGLDWERPYIDTLALAKSLLKLRSYSLDSVVEKLGLGPFRHHRALDDARVTAQVFLRFVEMMKKEGHHHHHH”, the protein production result is reported as “not failed”.

In the case of “MSLSEYRRKRSFDKTREPEPGKTLPPGQRAIFVVQLHHASRRHYDFRLQVGDALKSWAVPKGPSYDPKVKRMAVEVEDHPVDYASFEGEIPRGEYGGGHVAQFDHGVWATAGDPEAQLAKGHLRFELFGNKLKGGWHLVRSGKPARQPQWLLFKEDDAYAGTLEADDLLADVAATPADDVRRAGAGKTQRKGLTTVPPPAAKKRGTWAKQALALSGARRAEMEDAPFAPQLAKLVQSPPEGAQWLHEIKWDGYRILATVTNGKVRLWSRNALEWTDKTPEIADAIQSLGLRNAQIDGELIAGRGTKEDFNLLQATLSGERQVPLALAVFDLLHVDGVDISEAPLRERKQLLQQVLQAAPHMHLAYSSHVEGDGTEAFRVAGEQHFEGIISKRADRPYRDGRSDDWRKTKQLASQEYAVVGYTAPKGSRSGFGSLLLATPDPVHGWLYVGRVGSGFSDALMREVTQQLEGGGRKPTAHIPTPDTDLRGATWFAPRFVVEVFYRGIGGQQLLRQASFKALRPDKRIADLADSDAGNGRSTSSSTQRSAKTRAAKNAATQVAKRAATRATAPARKSAVATPSSAALPTLSSPTKLIYPDIRATKGDVWDYYQAVMDHLLPQIVGRPLSIIRCPSGAEKPCFFQKHHTAGLERVSSVKLTEETGTNAYYLVIEDAPGLLELVQFNALEFHPWGSHADRPDVADRVVFDLDPGPDVPFAEVKRAANDIRKLLAQLELESFLRVSGGKGLHVVVPLNPGCDWEVTKRFAKGFADALAQAEPQRFIATATKRLRNKRIFVDYLRNGRGATAVASYPLRGRPGAPVALPLAWSDLSKLQRADAFTLRDVPEKLRRRRKDPWADMDRIRQNLARWAEQDED”, the protein production entry is listed as “failed”.

On to “MSLSFTPLHTTSEAFIEKALPWLEDRYFHIAYLNPNGYTAYPQGAFRHYLAFGSEAAIHVSDATRVFETWNEIKKGYTNEWIFVFASYDGKNSVEQLHTSKEAGIAFAAATFFIPEHVWEIQPDGILIHKGSGSSLVTEIQHAEPSTPVQQSDIFVKQVVSKESYFNAFDELQQIIAQGDAYEINYCIPFTAKGNISPAATYQRLNKKTPMPFSVYYKFNTEYILSASPERFIKKTGDTIISQPIKGTSKRGKSKAEDEMLKQQLGTSEKEQSENTMIVDLVRNDLSRTAVAGSVCVPELSGLYTFPNVHQLISTVQSTIDPACSSIDVIQQAFPMGSMTGAPKVNVMKFIDRIESMARGPFSGTVGYMDPHDNFDFNVLIRSIFYNSATQELFMEAGSAITSYAKAETEYEECLLKITPMIHILNNQEGHHHHHH”, for which the protein production entry is “not failed”.

As for “MSLSGTDIHTSDYYFLFEEKFRGSRELVKARLRRYIPYFKGCRRVLDIGCGRGEFLELCKEEGIESIGVDINEDMIKFCEGKFNVVKSDAIEYLKSLPDKYLDGVMISHFVEHLDPERLFELLSLCYSKMKYSSYIVIESPNPTSLYSLINFYIDPTHKKPVHPETLKFILEYLGFRDVKIEFFEECEELTKLAKIDSNTVSEEVIRVINENIEKLNRILFGPQDYAIIAKKEGHHHHHH”, the protein production entry is reported as “not failed”.

As for “MSLSIVSYYGSQQSKCGYCAGANCSLSHGMHAYQLDCRDYQDLIDRGWRRCGYYCYKLRNQETCCPCYTIKCNGLEFKLSKSNKRILRRINRFLRDGKRESKPEAGDGDGEADADYAIVAPEVTASEPQPQLPDKSPPVINVEQVASLATAQRKPTKQATAAAVEAPTLGSNKSSLLSSSAAAPISNKPCKKAKQMRLDRRLAKLGDSASYSTKSLTQEKTLRDFLNTDSETNKHRLKLRLIHVYDDEFRRTLPQSFALYKKYQISIHNDPPKDQDAYKEHLQATPLQNEKPWDGPEMGYGSFHQQYWLDDKLIAVGVIDILPGCVSSVYFFYDPDYSFLSLGTYGSLREIELVQSLAEKVPSLKYYYMGFYIHSCPKMRYKGKLSPSYLLCPETYEWLPLTDVIRAKLDEHKYQRLNEDPAARDVNEFLMEHLDEVKLLLGGRTRTDYKHFRQLRGTVSDDDIIIEYSKLVGKECARRMLYVK”, the protein production entry is given as “failed”.

As to “MSLSKDNIWKLLAPLVVMGVMLLIPVPDGMPPQAWHYFAVFVAMIVGMILEPIPATAISFIAVTICVIGSNYLLFDASELADPAFKASKQALKWGLAGFSSTTVWLVFGAFIFALGYEVTGLGRRIALFLVKFMGKRTLTLGYAIVIIDILLAPFTPSNTARTGGTVFPVIKNLPPLFKSFPNDPSARRIGGYLMWMMVISTSLSSSMFVTGAAPNVLGLEFVSKIAGVQISWLQWFLSFLPVGIILLIVAPWLSYVLYKPEVTHSAEVAAWAGGELKNMGRLSRKEWTLIGLVLLSLGLWVFGGKIINATAVGLLAVSLMLALHVVPWKDITRYNSAWNTLVNLATLVVMANGLTRSGFIDWFANTMSTHLEGFSPDATVIVLVLVLVLVLVLVLVLVLVLVLVLVLVLVFYFAHYLFASLSAHTATMLPVILAVGKGIPGVPMEQLCILLVLSIGIMGCLTPYATGPGVIIYGCGYVKSRDYWRLGAIFGVIYIAMLLLVGWPILAMWN”, the protein production entry was “failed”.

In the case of “MSLSLLLQQHLSQPWRFLDHTSFGPTFQALQSFAYDDTLCTSIGKSQSPPTLRAWVHHNTVVLGIQDSRLPQIKAGIEALKGFQHDVIVRNSGGLAVVLDSGILNLSLVLKEEKGFSIDDGYELMYELICSMFQDHREQIEAREIVGSYCPGSYDLSIDGKKFAGISQRRIRGGVAVQIYLCVSGSGAERAKMIRTFYDKAVAGQPTKFVYPRIKPETMASLSELLGQPHNVSDVLLKALMTLQQHGASLLTESLSADEWLLYEQHFARISERNEKLLAEEGHHHHHH”, the protein production result is recorded as “not failed”.

For the sequence “MSLSLLVIGSLAFDDIETPFGRSDNTLGGSSTYIALSASYFTDEPIRMVGVVGSDFGKEHFDLLHAKNIDTRGIQVIEDGKTFRWAGRYHYDMNTRDTLDTQLNVFAEFDPHVPQYYRDSKFVCLGNIDPELQLKVLDQIDDPKLVVCDTMNFWIEGKPEELKKVLARVDVFIVNDSEARLLSGDPNLVKTARIIREMGPKTLIIKKGEHGALLFTDNGIFAAPAFPLESIYDPTGAGDTFAGGFIGHLARCGNTSEAEMRKAVLYGSAMASFCVEQFGPYRYNDLDLLEVDDRYQSFLELSRIEEGHHHHHH”, the protein production entry was “not failed”.

Consider “MSLSLYDSAHSLDGKSGWDTPVFSMKDSMDRNPMVTEAWEALCQSQVYFRGKPVGTIAAYDHASEEVLNYDQVFVRDFVPSALAFLMNGEPEIVKNFLLKTLHIQGQDKMIDKFKLGDGAMPASFKVLHNPIKKTDTIIADFGESAIGRVAPVDSGFWWIILLRAYTKSTGDHSLAERPECQKGMRLILSLCLSEGFDTFPTLLCADGCSMVDRRMGIYGYPIEIQALFFMALRSALSMLKHDSEGKEFMEKIVKRLHALSFHMRSYFWLDFQQLNDIYRYKTEEYSHTAVNKFNVIPDSIPDWIFDFMPLRGGYFVGNVSPARMDFRWFALGNCIAILSSLATPEQSMAIMDLIEARWEELVGEMPLKICYPAMESHEWGIVTGCDPKNTRWSYHNGGSWPVLLWLLTAASIKTGRPQIARRAIELAEARLLKDGWPEYYDGKSGRFIGKQARKSQTWSIAGYLVAKMMMDDPTHVGMISMEEEKHMKPPLRRSSSWT”, for which the protein production entry was “failed”.

These data come from a protein production outcome set (Wang et al. 2014).
